Measurements as given in US20250019428A1 (Janssen / Centocor, published 2025).

T1: human lymphotoxin (human, UniProt P01374 35-205, limits assumed)
T1 sequence (looked up): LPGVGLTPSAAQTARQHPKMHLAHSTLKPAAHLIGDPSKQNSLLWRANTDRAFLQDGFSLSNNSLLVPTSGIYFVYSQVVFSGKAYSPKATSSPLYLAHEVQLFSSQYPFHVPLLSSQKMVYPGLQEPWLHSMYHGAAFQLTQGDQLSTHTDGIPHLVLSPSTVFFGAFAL

B1: GenTNV148.26.12 (antibody, human IgG1, kappa, V domains shown)
VH: QVQLVESGGGVVQPGRSLRLSCAASGFIFSSYAMHWVRQAPGNGLEWVAFMSYDGSNKKYADSVKGRFTISRDNPKNTLYLQMNSLRAEDTAVYYCARDRGIAAGGNYYYYGMDVWGQGTTVTVSS
VL: EIVLTQSPATLSLSPGERATLSCRASQSVYSYLAWYQQKPGQAPRLLIYDASNRATGIPARFSGSGSGTDFTLTISSLEPEDFAVYYCQQRSNWPPFTFGPGTKVDIKR
notes: Hybridoma-derived human IgG1 kappa; also called C420A
B2: GenTNV86.14.34 (antibody, human IgG1, kappa, V domains shown)
VH: QVQLVESGGGVVQPGRSLRLSCAASGFIFSSYAMHWVRQAPGNGLEWVAFMSYDGSNKKYADSVKGRFTISRDNPKNTLYLQMNSLRAEDTAVYYCARDRGIAAGGNYYYYGMDVWGQGTTVTVSS
VL: EIVLTQSPATLSLSPGERATLSCRASQSVYSYLAWYQQKPGQAPRLLIYDASNRATGIPARFSGSGSGTDFTLTISSLEPEDFAVYYCQQRSNWPPFTFGPGTKVDIKR
notes: The constant region allotype is uncertain, as explained in the m8 note; also called C417A
B3: GenTNV15.28.11 (antibody, V domains shown)
VH: QVQLVESGGGVVQPGRSLRLSCAASGFTFSSYAMHWVRQAPGKGLEWVAFILYDGSNKKYADSVKGRFTISRDNSKNALYLQMNSLRAEDTAVYYCARDRGVSAGGNYYYYGMDVWGQGTTVTVSS
VL: EIVLTQSPATLSLSPGERATLSCRASQSVSSYLAWYQQKPGQAPRLLIYDASNRATGIPARFSGSGSGTDFTLTISSLEPEDFAVYYCQQRSNWPPFTFGPGTKVDIK
B4: golimumab (antibody, human IgG1, kappa, V domains shown)
VH: QVQLVESGGGVVQPGRSLRLSCAASGFIFSSYAMHWVRQAPGNGLEWVAFMSYDGSNKKYADSVKGRFTISRDNSKNTLYLQMNSLRAEDTAVYYCARDRGIAAGGNYYYYGMDVWGQGTTVTVSS
VL: EIVLTQSPATLSLSPGERATLSCRASQSVYSYLAWYQQKPGQAPRLLIYDASNRATGIPARFSGSGSGTDFTLTISSLEPEDFAVYYCQQRSNWPPFTFGPGTKVDIKR
modifications: N-glycosylated on asparagine 306
notes: Fully human IgG1 kappa; The commercial material is expressed in Sp2/0 cells; also called SIMPONI

Key:
[1] = target: T2, recombinant human TNFα (human, UniProt P01375 77-233, 125I-labeled in the receptor inhibition assay); experiment: competition: 125I-TNFα binding to coated p55-sf2, hybridoma supernatants
T2 construct: It is not expressly tied to the assay protein, so it is not used here; also called huTNFα; tumor necrosis factor alpha
Experimental: (§1) 50:1 of p55-sf2 at 0.5:g/ml in PBS was added to Optiplates to coat the wells during a one-hour incubation at 37° C. Serial dilutions of the eight TNV cell supernatants were prepared in 96-well round-bottom plates using PBS/0.1% BSA as diluent. […] The mixture was preincubated for one hour at RT. The coated Optiplates were washed to remove unbound p55-sf2 and 50:1 of the ¹²⁵I-TNFα/cell supernatant mixture was transferred to the Optiplates. After 2 hrs at RT, Optiplates were washed three times with PBS-Tween. […] of Microscint-20 was added and the cpm bound determined using the TopCount gamma counter.
A simple binding assay was done to determine whether the eight TNV mAbs contained in hybridoma cell supernatant were capable of blocking TNFα binding to receptor. The concentrations of the TNV mAbs in their respective cell supernatants were first determined by standard ELISA analysis for human IgG.

[2] = target: T2, recombinant human TNFα; experiment: competition radioligand assay: mAb in hybridoma supernatant preincubated with 5 ng/ml 125I-TNFα, then binding of 125I-TNFα to plate-coated p55-sf2 counted as cpm bound
Experimental: Varying amounts of hybridoma cell supernatants containing known amounts of TNV mAb were preincubated with a fixed concentration (5 ng/ml) of ¹²⁵I-labeled TNFα. […] The amount of TNFα that bound to the p55 receptor in the presence of the mAbs was determined after washing away the unbound material and counting using a gamma counter. […] Each sample was tested in duplicate. The results shown are representative of two independent experiments.
as §1
A simple binding assay was done to determine whether the eight TNV mAbs contained in hybridoma cell supernatant were capable of blocking TNFα binding to receptor.

[3] = target: T2, recombinant human TNFα; experiment: cell-based or functional assay
[4] = target: T1, human lymphotoxin; experiment: not described

| Binder | fold better at blocking TNF binding (against TNV118 and TNV14) [1] | IC50 (read off the curve) [2] | neutralizing TNFα bioactivity [3] | binding result [4] |
| --- | --- | --- | --- | --- |
| B1 | ~4 fold | ~3 ng/mL | 4 fold |  |
| B2 | ~4 fold |  |  |  |
| B3 |  | ~3 ng/mL |  |  |
| B4 |  |  |  | no binding |
